Source: the supplement of paper PMC9112550, “Optimization of the antimicrobial peptide Bac7 by deep mutational scanning” (BMC Biology, 2022)

test system: Escherichia coli TOP10; experiment: shrunken log2 fold change of peptide-encoding DNA abundance (4.5 h post-induction vs induction); higher = less antimicrobial activity (less host growth inhibition); details: time post-induction: 4.5 h; library: site-saturation at positions 5, 18, 19, 20
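Further: peptides expressed intracellularly from a pBAD plasmid library in pooled LB shake-flask culture, induced with 0.3% L-arabinose, DNA abundance read by NGS, three biological replicates, DESeq2 with apeglm shrinkage.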

Sequence | shrunken log2 fold change
RRIRMRPPRLPRPRPRPQRKPRP | 0.605
RRIRMRPPRLPRPRPRPQVYPRP | 0.0985
RRIRMRPPRLPRPRPRPQWGPRP | 0.0503
RRIRMRPPRLPRPRPRPQWPPRP | -0.132
RRIRMRPPRLPRPRPRPQYNPRP | -0.934
RRIRMRPPRLPRPRPRPRADPRP | 1.73
RRIRMRPPRLPRPRPRPRAGPRP | 1.08
RRIRMRPPRLPRPRPRPRCHPRP | 0.133
RRIRMRPPRLPRPRPRPRCSPRP | 0.393
RRIRMRPPRLPRPRPRPREAPRP | 1.82
RRIRMRPPRLPRPRPRPREDPRP | 0.0544
RRIRMRPPRLPRPRPRPREGPRP | 0.79
RRIRMRPPRLPRPRPRPRELPRP | 1.54
RRIRMRPPRLPRPRPRPREMPRP | 0.657
RRIRMRPPRLPRPRPRPRFQPRP | 0.268
RRIRMRPPRLPRPRPRPRFSPRP | 0.206
RRIRMRPPRLPRPRPRPRHFPRP | 0.00681
RRIRMRPPRLPRPRPRPRHSPRP | 0.0596
RRIRMRPPRLPRPRPRPRHVPRP | 0.437
RRIRMRPPRLPRPRPRPRKIPRP | 0.322

Sequence | shrunken log2 fold change
RRIRMRPPRLPRPRPRPRKRPRP | 3
RRIRMRPPRLPRPRPRPRLDPRP | 0.897
RRIRMRPPRLPRPRPRPRLFPRP | 0.998
RRIRMRPPRLPRPRPRPRLVPRP | 0.76
RRIRMRPPRLPRPRPRPRPAPRP | 1.51
RRIRMRPPRLPRPRPRPRQAPRP | 0.013
RRIRMRPPRLPRPRPRPRQTPRP | 0.0189
RRIRMRPPRLPRPRPRPRSAPRP | 1.36
RRIRMRPPRLPRPRPRPRSHPRP | 0.407
RRIRMRPPRLPRPRPRPRSPPRP | 0.921
RRIRMRPPRLPRPRPRPRSRPRP | 0.997
RRIRMRPPRLPRPRPRPRYEPRP | -0.0771
RRIRMRPPRLPRPRPRPRYFPRP | 0.0308
RRIRMRPPRLPRPRPRPSAGPRP | 0.655
RRIRMRPPRLPRPRPRPSAMPRP | 1.44
RRIRMRPPRLPRPRPRPSCIPRP | -0.27
RRIRMRPPRLPRPRPRPSDFPRP | -0.764
RRIRMRPPRLPRPRPRPSFHPRP | -0.432
RRIRMRPPRLPRPRPRPSFIPRP | -0.668
RRIRMRPPRLPRPRPRPSGGPRP | 0.738

Sequence | shrunken log2 fold change
RRIRMRPPRLPRPRPRPSHTPRP | 0.0597
RRIRMRPPRLPRPRPRPSIGPRP | -0.00737
RRIRMRPPRLPRPRPRPSIHPRP | -0.823
RRIRMRPPRLPRPRPRPSLMPRP | 0.428
RRIRMRPPRLPRPRPRPSLNPRP | -0.0544
RRIRMRPPRLPRPRPRPSMFPRP | -0.368
RRIRMRPPRLPRPRPRPSNFPRP | -0.192
RRIRMRPPRLPRPRPRPSNHPRP | 0.00558
RRIRMRPPRLPRPRPRPSNYPRP | -0.078
RRIRMRPPRLPRPRPRPSQWPRP | 0.0206
RRIRMRPPRLPRPRPRPSSGPRP | 0.0493
RRIRMRPPRLPRPRPRPSSTPRP | 0.858
RRIRMRPPRLPRPRPRPSTFPRP | 0.147
RRIRMRPPRLPRPRPRPSTMPRP | -0.283
RRIRMRPPRLPRPRPRPSVAPRP | 0.44
RRIRMRPPRLPRPRPRPSVDPRP | 0.508
RRIRMRPPRLPRPRPRPSVEPRP | 0.227
RRIRMRPPRLPRPRPRPSVGPRP | 0.357
RRIRMRPPRLPRPRPRPSVTPRP | 0.703
RRIRMRPPRLPRPRPRPSWFPRP | 0.0112
